The values below come from publication doi:10.1101/2022.07.26.501514.

This assay addresses T1, Atg18 wildtype (Autophagy-related protein 18, Saccharomyces cerevisiae) (Saccharomyces cerevisiae), P43601.
T1 chain: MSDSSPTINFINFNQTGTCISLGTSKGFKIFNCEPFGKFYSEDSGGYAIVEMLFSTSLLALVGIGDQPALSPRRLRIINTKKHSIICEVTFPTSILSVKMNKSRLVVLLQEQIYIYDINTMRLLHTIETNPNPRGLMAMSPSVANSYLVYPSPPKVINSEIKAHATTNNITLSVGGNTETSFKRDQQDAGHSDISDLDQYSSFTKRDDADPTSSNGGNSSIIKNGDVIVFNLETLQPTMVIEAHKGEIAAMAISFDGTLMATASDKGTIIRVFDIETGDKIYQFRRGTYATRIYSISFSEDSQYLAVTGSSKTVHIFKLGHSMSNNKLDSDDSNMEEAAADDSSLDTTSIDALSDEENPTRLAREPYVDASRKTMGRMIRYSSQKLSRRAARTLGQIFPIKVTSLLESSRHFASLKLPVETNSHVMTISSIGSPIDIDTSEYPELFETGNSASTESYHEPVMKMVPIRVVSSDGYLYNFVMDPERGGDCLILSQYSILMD
Nature of the assay: single-particle cryo-EM, 2D classification. Conditions: remark: other sources report otherwise.

B1: Atg18 wildtype (Autophagy-related protein 18, Saccharomyces cerevisiae), P43601 1-500 (natural protein)
chain: MSDSSPTINFINFNQTGTCISLGTSKGFKIFNCEPFGKFYSEDSGGYAIVEMLFSTSLLALVGIGDQPALSPRRLRIINTKKHSIICEVTFPTSILSVKMNKSRLVVLLQEQIYIYDINTMRLLHTIETNPNPRGLMAMSPSVANSYLVYPSPPKVINSEIKAHATTNNITLSVGGNTETSFKRDQQDAGHSDISDLDQYSSFTKRDDADPTSSNGGNSSIIKNGDVIVFNLETLQPTMVIEAHKGEIAAMAISFDGTLMATASDKGTIIRVFDIETGDKIYQFRRGTYATRIYSISFSEDSQYLAVTGSSKTVHIFKLGHSMSNNKLDSDDSNMEEAAADDSSLDTTSIDALSDEENPTRLAREPYVDASRKTMGRMIRYSSQKLSRRAARTLGQIFPIKVTSLLESSRHFASLKLPVETNSHVMTISSIGSPIDIDTSEYPELFETGNSASTESYHEPVMKMVPIRVVSSDGYLYNFVMDPERGGDCLILSQYSILMD
The stoichiometry N is the number of molecules, sites or subunits per partner or assembly. Molecule B1 gave a stoichiometry N of 2.
